Source: patent publication US6107048

Legend:
monoclonal antibody 8H10 = assay: competition ELISA: peptide inhibits binding of 8H10 to recombinant Rab11
monoclonal antibody 12C3 = assay: competition ELISA: peptide inhibits binding of 12C3 to recombinant Rab25

Binder	IC50 (monoclonal antibody 8H10) [µg/mL]	IC60 (monoclonal antibody 12C3) [µg/mL]
QKQMSDRRENDMSPSNNVVPIHVPPTTENKPKVQ [Rab11 C-terminal variable region synthetic peptide]	1	
KVSKQIQNSPRSNAIALGSAQAGQEPGPGQKR [Rab25 C-terminal variable region synthetic peptide]		1
